According to the RNAGym collection of RNA variant scans (doi:10.1021/acssynbio.7b00057):

B1: Pistol ribozyme (parent)
chain: GGGUCGUUGUUCCAUAAUCGCGUGGAUAUGGCACGCAAGUUUCUACCGGGCACCGUAAAUGUCCGACUGGAGCCGUUCGGGCGGCUAUAAACAGACCUCAGGCCCGAAGCGUGGCGGCACCUGCCGCCGGUGGUAAAAAAGAUCGGAAGAGCACACGUCU

Variants of: B1
Test: aptazyme ON/OFF ratio, guanine; higher = stronger switching; co-transcriptional cleavage with and without guanine

| Variant | aptazyme ON/OFF ratio |
| --- | --- |
| GGGUCGGCUCGGCAUAAUCGCGUGGAUAUGGCACGCAAGUUUCUACCGGGCACCGUAAAUGUCCGACUGGAGCCGUUCGGGCGGCUAUAAACAGACCUCAGGCCCGAAGCGUGGCGGCACCUGCCGCCGGUGGUAAAAAAGAUCGGAAGAGCACACGUCU [U7G U8C G9U U10C U11G C12G] | 1.1 |
| GGGUCGAUCGGAUAUAAUCGCGUGGAUAUGGCACGCAAGUUUCUACCGGGCACCGUAAAUGUCCGACUGGAGCCGUUCGGGCGGCUAUAAACAGACCUCAGGCCCGAAGCGUGGCGGCACCUGCCGCCGGUGGUAAAAAAGAUCGGAAGAGCACACGUCU [U7A G9C U10G U11G C12A C13U] | 1.08 |
| GGGUCGAGCGCGAAUAAUCGCGUGGAUAUGGCACGCAAGUUUCUACCGGGCACCGUAAAUGUCCGACUGGAGCCGUUCGGGCGGCUAUAAACAGACCUCAGGCCCGAAGCGUGGCGGCACCUGCCGCCGGUGGUAAAAAAGAUCGGAAGAGCACACGUCU [U7A U8G G9C U10G U11C C12G C13A] | 1.27 |
| GGGUCGCCGCCCCAUAAUCGCGUGGAUAUGGCACGCAAGUUUCUACCGGGCACCGUAAAUGUCCGACUGGAGCCGUUCGGGCGGCUAUAAACAGACCUCAGGCCCGAAGCGUGGCGGCACCUGCCGCCGGUGGUAAAAAAGAUCGGAAGAGCACACGUCU [U7C U8C U10C U11C] | 1.46 |
| GGGUCGUCAAAAGAUAAUCGCGUGGAUAUGGCACGCAAGUUUCUACCGGGCACCGUAAAUGUCCGACUGGAGCCGUUCGGGCGGCUAUAAACAGACCUCAGGCCCGAAGCGUGGCGGCACCUGCCGCCGGUGGUAAAAAAGAUCGGAAGAGCACACGUCU [U8C G9A U10A U11A C12A C13G] | 1.15 |
| GGGUCGGAGGGGGAUAAUCGCGUGGAUAUGGCACGCAAGUUUCUACCGGGCACCGUAAAUGUCCGACUGGAGCCGUUCGGGCGGCUAUAAACAGACCUCAGGCCCGAAGCGUGGCGGCACCUGCCGCCGGUGGUAAAAAAGAUCGGAAGAGCACACGUCU [U7G U8A U10G U11G C12G C13G] | 0.981 |
| GGGUCGGCCGAGCAUAAUCGCGUGGAUAUGGCACGCAAGUUUCUACCGGGCACCGUAAAUGUCCGACUGGAGCCGUUCGGGCGGCUAUAAACAGACCUCAGGCCCGAAGCGUGGCGGCACCUGCCGCCGGUGGUAAAAAAGAUCGGAAGAGCACACGUCU [U7G U8C G9C U10G U11A C12G] | 1.17 |
| GGGUCGUGCACGCAUAAUCGCGUGGAUAUGGCACGCAAGUUUCUACCGGGCACCGUAAAUGUCCGACUGGAGCCGUUCGGGCGGCUAUAAACAGACCUCAGGCCCGAAGCGUGGCGGCACCUGCCGCCGGUGGUAAAAAAGAUCGGAAGAGCACACGUCU [U8G G9C U10A U11C C12G] | 1.14 |
| GGGUCGGCCGACUAUAAUCGCGUGGAUAUGGCACGCAAGUUUCUACCGGGCACCGUAAAUGUCCGACUGGAGCCGUUCGGGCGGCUAUAAACAGACCUCAGGCCCGAAGCGUGGCGGCACCUGCCGCCGGUGGUAAAAAAGAUCGGAAGAGCACACGUCU [U7G U8C G9C U10G U11A C13U] | 1.05 |
| GGGUCGCUUCACGAUAAUCGCGUGGAUAUGGCACGCAAGUUUCUACCGGGCACCGUAAAUGUCCGACUGGAGCCGUUCGGGCGGCUAUAAACAGACCUCAGGCCCGAAGCGUGGCGGCACCUGCCGCCGGUGGUAAAAAAGAUCGGAAGAGCACACGUCU [U7C G9U U10C U11A C13G] | 1.04 |
| GGGUCGUCGAACAAUAAUCGCGUGGAUAUGGCACGCAAGUUUCUACCGGGCACCGUAAAUGUCCGACUGGAGCCGUUCGGGCGGCUAUAAACAGACCUCAGGCCCGAAGCGUGGCGGCACCUGCCGCCGGUGGUAAAAAAGAUCGGAAGAGCACACGUCU [U8C U10A U11A C13A] | 1.17 |
| GGGUCGGACACGAAUAAUCGCGUGGAUAUGGCACGCAAGUUUCUACCGGGCACCGUAAAUGUCCGACUGGAGCCGUUCGGGCGGCUAUAAACAGACCUCAGGCCCGAAGCGUGGCGGCACCUGCCGCCGGUGGUAAAAAAGAUCGGAAGAGCACACGUCU [U7G U8A G9C U10A U11C C12G C13A] | 1.04 |
| GGGUCGAUAAACAAUAAUCGCGUGGAUAUGGCACGCAAGUUUCUACCGGGCACCGUAAAUGUCCGACUGGAGCCGUUCGGGCGGCUAUAAACAGACCUCAGGCCCGAAGCGUGGCGGCACCUGCCGCCGGUGGUAAAAAAGAUCGGAAGAGCACACGUCU [U7A G9A U10A U11A C13A] | 1.15 |
| GGGUCGCGUGCUAAUAAUCGCGUGGAUAUGGCACGCAAGUUUCUACCGGGCACCGUAAAUGUCCGACUGGAGCCGUUCGGGCGGCUAUAAACAGACCUCAGGCCCGAAGCGUGGCGGCACCUGCCGCCGGUGGUAAAAAAGAUCGGAAGAGCACACGUCU [U7C U8G G9U U10G U11C C12U C13A] | 1.13 |
| GGGUCGACAUCGCAUAAUCGCGUGGAUAUGGCACGCAAGUUUCUACCGGGCACCGUAAAUGUCCGACUGGAGCCGUUCGGGCGGCUAUAAACAGACCUCAGGCCCGAAGCGUGGCGGCACCUGCCGCCGGUGGUAAAAAAGAUCGGAAGAGCACACGUCU [U7A U8C G9A U11C C12G] | 1.24 |
| GGGUCGCCUUAAUAUAAUCGCGUGGAUAUGGCACGCAAGUUUCUACCGGGCACCGUAAAUGUCCGACUGGAGCCGUUCGGGCGGCUAUAAACAGACCUCAGGCCCGAAGCGUGGCGGCACCUGCCGCCGGUGGUAAAAAAGAUCGGAAGAGCACACGUCU [U7C U8C G9U U11A C12A C13U] | 1.28 |
| GGGUCGCAUGCUGAUAAUCGCGUGGAUAUGGCACGCAAGUUUCUACCGGGCACCGUAAAUGUCCGACUGGAGCCGUUCGGGCGGCUAUAAACAGACCUCAGGCCCGAAGCGUGGCGGCACCUGCCGCCGGUGGUAAAAAAGAUCGGAAGAGCACACGUCU [U7C U8A G9U U10G U11C C12U C13G] | 1.14 |
| GGGUCGUUACUCGAUAAUCGCGUGGAUAUGGCACGCAAGUUUCUACCGGGCACCGUAAAUGUCCGACUGGAGCCGUUCGGGCGGCUAUAAACAGACCUCAGGCCCGAAGCGUGGCGGCACCUGCCGCCGGUGGUAAAAAAGAUCGGAAGAGCACACGUCU [G9A U10C C13G] | 1.03 |

| Variant | aptazyme ON/OFF ratio |
| --- | --- |
| GGGUCGGAGAAAUAUAAUCGCGUGGAUAUGGCACGCAAGUUUCUACCGGGCACCGUAAAUGUCCGACUGGAGCCGUUCGGGCGGCUAUAAACAGACCUCAGGCCCGAAGCGUGGCGGCACCUGCCGCCGGUGGUAAAAAAGAUCGGAAGAGCACACGUCU [U7G U8A U10A U11A C12A C13U] | 1.08 |
| GGGUCGAGCUUUAAUAAUCGCGUGGAUAUGGCACGCAAGUUUCUACCGGGCACCGUAAAUGUCCGACUGGAGCCGUUCGGGCGGCUAUAAACAGACCUCAGGCCCGAAGCGUGGCGGCACCUGCCGCCGGUGGUAAAAAAGAUCGGAAGAGCACACGUCU [U7A U8G G9C C12U C13A] | 1.4 |
| GGGUCGAAGAACAAUAAUCGCGUGGAUAUGGCACGCAAGUUUCUACCGGGCACCGUAAAUGUCCGACUGGAGCCGUUCGGGCGGCUAUAAACAGACCUCAGGCCCGAAGCGUGGCGGCACCUGCCGCCGGUGGUAAAAAAGAUCGGAAGAGCACACGUCU [U7A U8A U10A U11A C13A] | 1.16 |
| GGGUCGACUUAUUAUAAUCGCGUGGAUAUGGCACGCAAGUUUCUACCGGGCACCGUAAAUGUCCGACUGGAGCCGUUCGGGCGGCUAUAAACAGACCUCAGGCCCGAAGCGUGGCGGCACCUGCCGCCGGUGGUAAAAAAGAUCGGAAGAGCACACGUCU [U7A U8C G9U U11A C12U C13U] | 1.16 |
| GGGUCGCUCCUGCAUAAUCGCGUGGAUAUGGCACGCAAGUUUCUACCGGGCACCGUAAAUGUCCGACUGGAGCCGUUCGGGCGGCUAUAAACAGACCUCAGGCCCGAAGCGUGGCGGCACCUGCCGCCGGUGGUAAAAAAGAUCGGAAGAGCACACGUCU [U7C G9C U10C C12G] | 1.07 |
| GGGUCGUAUGAGCAUAAUCGCGUGGAUAUGGCACGCAAGUUUCUACCGGGCACCGUAAAUGUCCGACUGGAGCCGUUCGGGCGGCUAUAAACAGACCUCAGGCCCGAAGCGUGGCGGCACCUGCCGCCGGUGGUAAAAAAGAUCGGAAGAGCACACGUCU [U8A G9U U10G U11A C12G] | 1.28 |
| GGGUCGUCAAGGAAUAAUCGCGUGGAUAUGGCACGCAAGUUUCUACCGGGCACCGUAAAUGUCCGACUGGAGCCGUUCGGGCGGCUAUAAACAGACCUCAGGCCCGAAGCGUGGCGGCACCUGCCGCCGGUGGUAAAAAAGAUCGGAAGAGCACACGUCU [U8C G9A U10A U11G C12G C13A] | 1.16 |
| GGGUCGGCGAAUAAUAAUCGCGUGGAUAUGGCACGCAAGUUUCUACCGGGCACCGUAAAUGUCCGACUGGAGCCGUUCGGGCGGCUAUAAACAGACCUCAGGCCCGAAGCGUGGCGGCACCUGCCGCCGGUGGUAAAAAAGAUCGGAAGAGCACACGUCU [U7G U8C U10A U11A C12U C13A] | 1.2 |
| GGGUCGGGGGGAGAUAAUCGCGUGGAUAUGGCACGCAAGUUUCUACCGGGCACCGUAAAUGUCCGACUGGAGCCGUUCGGGCGGCUAUAAACAGACCUCAGGCCCGAAGCGUGGCGGCACCUGCCGCCGGUGGUAAAAAAGAUCGGAAGAGCACACGUCU [U7G U8G U10G U11G C12A C13G] | 1.03 |
| GGGUCGACCGUCCAUAAUCGCGUGGAUAUGGCACGCAAGUUUCUACCGGGCACCGUAAAUGUCCGACUGGAGCCGUUCGGGCGGCUAUAAACAGACCUCAGGCCCGAAGCGUGGCGGCACCUGCCGCCGGUGGUAAAAAAGAUCGGAAGAGCACACGUCU [U7A U8C G9C U10G] | 1.01 |
| GGGUCGGUGAGUCAUAAUCGCGUGGAUAUGGCACGCAAGUUUCUACCGGGCACCGUAAAUGUCCGACUGGAGCCGUUCGGGCGGCUAUAAACAGACCUCAGGCCCGAAGCGUGGCGGCACCUGCCGCCGGUGGUAAAAAAGAUCGGAAGAGCACACGUCU [U7G U10A U11G C12U] | 1.32 |
| GGGUCGGAGUGGCAUAAUCGCGUGGAUAUGGCACGCAAGUUUCUACCGGGCACCGUAAAUGUCCGACUGGAGCCGUUCGGGCGGCUAUAAACAGACCUCAGGCCCGAAGCGUGGCGGCACCUGCCGCCGGUGGUAAAAAAGAUCGGAAGAGCACACGUCU [U7G U8A U11G C12G] | 1.33 |
| GGGUCGAGGCCACAUAAUCGCGUGGAUAUGGCACGCAAGUUUCUACCGGGCACCGUAAAUGUCCGACUGGAGCCGUUCGGGCGGCUAUAAACAGACCUCAGGCCCGAAGCGUGGCGGCACCUGCCGCCGGUGGUAAAAAAGAUCGGAAGAGCACACGUCU [U7A U8G U10C U11C C12A] | 1.62 |
| GGGUCGGCUUAACAUAAUCGCGUGGAUAUGGCACGCAAGUUUCUACCGGGCACCGUAAAUGUCCGACUGGAGCCGUUCGGGCGGCUAUAAACAGACCUCAGGCCCGAAGCGUGGCGGCACCUGCCGCCGGUGGUAAAAAAGAUCGGAAGAGCACACGUCU [U7G U8C G9U U11A C12A] | 2.91 |
| GGGUCGCAAACAUAUAAUCGCGUGGAUAUGGCACGCAAGUUUCUACCGGGCACCGUAAAUGUCCGACUGGAGCCGUUCGGGCGGCUAUAAACAGACCUCAGGCCCGAAGCGUGGCGGCACCUGCCGCCGGUGGUAAAAAAGAUCGGAAGAGCACACGUCU [U7C U8A G9A U10A U11C C12A C13U] | 1.16 |
| GGGUCGCAACCCGAUAAUCGCGUGGAUAUGGCACGCAAGUUUCUACCGGGCACCGUAAAUGUCCGACUGGAGCCGUUCGGGCGGCUAUAAACAGACCUCAGGCCCGAAGCGUGGCGGCACCUGCCGCCGGUGGUAAAAAAGAUCGGAAGAGCACACGUCU [U7C U8A G9A U10C U11C C13G] | 1.05 |
| GGGUCGACAACCCAUAAUCGCGUGGAUAUGGCACGCAAGUUUCUACCGGGCACCGUAAAUGUCCGACUGGAGCCGUUCGGGCGGCUAUAAACAGACCUCAGGCCCGAAGCGUGGCGGCACCUGCCGCCGGUGGUAAAAAAGAUCGGAAGAGCACACGUCU [U7A U8C G9A U10A U11C] | 1.07 |
| GGGUCGCAUAACUAUAAUCGCGUGGAUAUGGCACGCAAGUUUCUACCGGGCACCGUAAAUGUCCGACUGGAGCCGUUCGGGCGGCUAUAAACAGACCUCAGGCCCGAAGCGUGGCGGCACCUGCCGCCGGUGGUAAAAAAGAUCGGAAGAGCACACGUCU [U7C U8A G9U U10A U11A C13U] | 1.19 |
